Drawing on the supplement of paper PMC10567573, this text covers protein stability index for 36 sequences.

The nature of the data set: protein stability index of a GFP-peptide fusion (GPS, HEK-293T) (PSI 1-6); higher = more stable. The note with it: c terminus: a fixed tail appended.

± gives the standard deviation.
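Further: 24-mer peptide tiles fused after GFP, lentivirally expressed, FACS-sorted into six equal bins by GFP/DsRed ratio, decoded by Illumina sequencing, PSI is the read-weighted mean bin number.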

With SVSLDRCIKIWDVTSQATLLTITK [WDR88], the protein stability index runs as follows: (treatment: DMSO) 2.43 ± 0.2; (treatment: MLN4924 1 uM, 8 h) 2.43 ± 0.21.

In the case of SSPAGLSREYKLVMLGAGGVGKSA [RIT1], the protein stability index is, setting by setting: (treatment: DMSO) 3.17 ± 0.62; (treatment: MLN4924 1 uM, 8 h) 2.96 ± 0.22.

Consider RPGHLPGLLLGSHGLLGSPVRAAA [CDC25B], for which the protein stability index was determined as 3.31 ± 0.53 (treatment: DMSO) and 3.09 ± 0.42 (treatment: MLN4924 1 uM, 8 h).

As to RDVKPENFLIGRQGNKKEHVIHII [CSNK1G1], the protein stability index runs as follows: (treatment: DMSO) 2.26 ± 0.42; (treatment: MLN4924 1 uM, 8 h) 2.33 ± 0.21.

Consider PRRKKLKSTSKYIYQTLFLNGENS [GMCL1], for which the protein stability index by setting is: (treatment: DMSO) 2.69 ± 0.17; (treatment: MLN4924 1 uM, 8 h) 2.79 ± 0.16.

As for ADYSAALDPAYTTLEFENVQVLTM [HNF4A], the protein stability index by setting is: (treatment: DMSO) 2.75 ± 0.25; (treatment: MLN4924 1 uM, 8 h) 2.39 ± 0.32.

Consider ITTKIFWGGKAETERGLSRKHIIE [KCNAB2], for which the protein stability index reads like this: (treatment: DMSO) 2.65 ± 0.29; (treatment: MLN4924 1 uM, 8 h) 2.89 ± 0.33.

AAEMYQRGRAVLREAGFHQYEVSN [RSAD1]: the protein stability index (treatment: DMSO) was determined as 3.32 ± 0.3 and the protein stability index (treatment: MLN4924 1 uM, 8 h) was 3.29 ± 0.24.

On to AGEDNDDLIDNLKEAQYIRTERVE [PCMTD1], for which the protein stability index (treatment: DMSO) was determined as 5.08 ± 0.18 and the protein stability index (treatment: MLN4924 1 uM, 8 h) stood at 5.15 ± 0.26.

Turning to MQVLVTAISPGRFPEALDELPLPP [ANKRD9], the protein stability index (treatment: DMSO) is 2.17 ± 0.48 and the protein stability index (treatment: MLN4924 1 uM, 8 h) is 2.23 ± 0.19.

Consider MDATNAFKKTAYELLDEKLLARGT [FEM1A], for which the protein stability index runs as follows: (treatment: DMSO) 3.8 ± 0.23; (treatment: MLN4924 1 uM, 8 h) 3.85 ± 0.25.

Consider GQPFNSDDRNTACHHGLVADSLQA [DLC1], for which the protein stability index runs as follows: (treatment: DMSO) 4.49 ± 0.2; (treatment: MLN4924 1 uM, 8 h) 4.63 ± 0.1.

With YLLPDTCFRMQINHAIDIICGFLK [OAS1], the protein stability index by setting is: (treatment: DMSO) 2.27 ± 0.3; (treatment: MLN4924 1 uM, 8 h) 2.1 ± 0.33.

As to MLGRLGYLNHVRAASPQDLAGGYT [MNAT1], the protein stability index runs as follows: (treatment: DMSO) 2.61 ± 0.14; (treatment: MLN4924 1 uM, 8 h) 2.59 ± 0.37.

With IWEQRSATVVMMTKLEERSRVKCD [PTPRD], the protein stability index was determined as 3.29 ± 0.27 (treatment: DMSO) and 3.26 ± 0.41 (treatment: MLN4924 1 uM, 8 h).

MLAEIFCQTGGVEDQEEWHAQVVE [ZBED1]: the protein stability index was 3.05 ± 0.2 (treatment: DMSO) and 3.49 ± 0.4 (treatment: MLN4924 1 uM, 8 h).

Take ETVKLFICELVMALDYLQNQRIIH [STK32A]: the protein stability index is, setting by setting: (treatment: DMSO) 3.39 ± 0.55; (treatment: MLN4924 1 uM, 8 h) 3.08 ± 0.27.

In the case of ENKVVEKAPVQNEAPALGGGEYQE [BEX5], the protein stability index is, setting by setting: (treatment: DMSO) 5.41 ± 0.2; (treatment: MLN4924 1 uM, 8 h) 5.42 ± 0.32.

As to RFIHLVTGCVLGSSGKVLPKWGWE [POMT2], the protein stability index (treatment: DMSO) came out at 3.51 ± 1.3 and the protein stability index (treatment: MLN4924 1 uM, 8 h) was 3.15 ± 0.63.

FSAHYDAVEAELKSSTVGLVTLND [FAM50A]: the protein stability index reads like this: (treatment: DMSO) 3.86 ± 0.16; (treatment: MLN4924 1 uM, 8 h) 3.94 ± 0.32.

Turning to TVFYIPEDHKPGTFPKALTNGSFS [DLC1], the protein stability index runs as follows: (treatment: DMSO) 2.86 ± 0.14; (treatment: MLN4924 1 uM, 8 h) 3.11 ± 0.26.

As for KAHETLHQSLSLASSPKGTIENIL [CDC25A], the protein stability index (treatment: DMSO) amounted to 3.55 ± 0.5 and the protein stability index (treatment: MLN4924 1 uM, 8 h) worked out at 3.59 ± 0.22.

Take RQIRTNWATRKPPAPKSTYECRCI [TIA1]: the protein stability index runs as follows: (treatment: DMSO) 2.56 ± 0.17; (treatment: MLN4924 1 uM, 8 h) 2.85 ± 0.45.

For ACRVTELQQQPLCTSVNTIYDNAV [LRRC59], the protein stability index reads like this: (treatment: DMSO) 2.68 ± 0.4; (treatment: MLN4924 1 uM, 8 h) 2.61 ± 0.25.

KPGEGRSALFAGNEWRRPIIQFVE [TRIM29]: the protein stability index by setting is: (treatment: DMSO) 2.34 ± 0.35; (treatment: MLN4924 1 uM, 8 h) 2.86 ± 0.46.

Consider HEQALFIYVHILKDTRMAEEYCHK [VPS39], for which the protein stability index (treatment: DMSO) worked out at 2.57 ± 0.62 and the protein stability index (treatment: MLN4924 1 uM, 8 h) was found to be 2.4 ± 0.59.

Turning to VHSERKLLPLVTLCDGNPRRPSPV [SCNN1D], the protein stability index is, setting by setting: (treatment: DMSO) 3.58 ± 0.23; (treatment: MLN4924 1 uM, 8 h) 3.56 ± 0.49.

As to SPEPGTPAAPTPESFTVHFLPLNS [DNAAF3], the protein stability index runs as follows: (treatment: DMSO) 3.55 ± 0.35; (treatment: MLN4924 1 uM, 8 h) 3.5 ± 0.22.

Regarding KCLVTEAQTLLRLSGVQRVESVFF [RSAD1], the protein stability index was determined as 2.53 ± 0.43 (treatment: DMSO) and 2.4 ± 0.25 (treatment: MLN4924 1 uM, 8 h).

For MAPVMAHVDPEEPWSPCSARFITD [ADAMTS4], the protein stability index worked out at 3.76 ± 0.4 (treatment: DMSO) and 3.85 ± 0.37 (treatment: MLN4924 1 uM, 8 h).

In the case of NGSGDMIFEGNSEKEIPVLNELPV [CPXM2], the protein stability index was found to be 4.79 ± 0.34 (treatment: DMSO) and 5.01 ± 0.25 (treatment: MLN4924 1 uM, 8 h).

As for LPSERWNPTQNVRTILLSVISLLN [CDC34], the protein stability index is 3.53 ± 0.2 (treatment: DMSO) and 3.58 ± 0.33 (treatment: MLN4924 1 uM, 8 h).

As for VAAGEKSILTDNPTWIIDPIDGTT [IMPA1], the protein stability index came to 3.92 ± 0.19 (treatment: DMSO) and 4.03 ± 0.2 (treatment: MLN4924 1 uM, 8 h).

As for GGYLTELEDGFYLTAFICFLVFIL [MFSD9], the protein stability index amounted to 1.98 ± 0.22 (treatment: DMSO) and 2.14 ± 0.34 (treatment: MLN4924 1 uM, 8 h).

On to QVHQGIKGMVLDENYNNLANAVIS [CPN1], for which the protein stability index by setting is: (treatment: DMSO) 2.52 ± 0.23; (treatment: MLN4924 1 uM, 8 h) 2.62 ± 0.34.

Regarding LKEMYDADLLEEEVIISWSEKASK [EIF5], the protein stability index worked out at 3.33 ± 0.45 (treatment: DMSO) and 3.88 ± 0.44 (treatment: MLN4924 1 uM, 8 h).
